In paper PMC2628979 (Molecular microbiology, 2007):
Where two headings read alike, the source gives them in different places.

B3: N-CEA F29R (domain or fragment)
chain: AKLTIESTPFNVAEGKEVLLLVHNLPQHLRGYSWYKGERVDGNRQIIGYVIGTQQATPGPAYSGREIIYPNASLLIQNIIQNDTGFYTLHVIKSDLVNEEATGQFRVYPEL
B8: N-terminal domain of carcinoembryonic antigen (N-CEA) (domain or fragment)
chain: AKLTIESTPFNVAEGKEVLLLVHNLPQHLFGYSWYKGERVDGNRQIIGYVIGTQQATPGPAYSGREIIYPNASLLIQNIIQNDTGFYTLHVIKSDLVNEEATGQFRVYPEL
B11: N-CEA S32N (domain or fragment)
chain: AKLTIESTPFNVAEGKEVLLLVHNLPQHLFGYNWYKGERVDGNRQIIGYVIGTQQATPGPAYSGREIIYPNASLLIQNIIQNDTGFYTLHVIKSDLVNEEATGQFRVYPEL
B13: N-CEA Q44R (domain or fragment)
chain: AKLTIESTPFNVAEGKEVLLLVHNLPQHLFGYSWYKGERVDGNRRIIGYVIGTQQATPGPAYSGREIIYPNASLLIQNIIQNDTGFYTLHVIKSDLVNEEATGQFRVYPEL

Tests used:
[1] = molecular target: TMR labeled H27C N-CEA mutant (human) (UniProt P06731); experiment: absorbance of tetramethylrhodamine dimers
SEC = molecular target: the molecule itself; experiment: SEC
[2] = molecular target: B8; experiment: SPR
cross-linking = molecular target: the molecule itself; experiment: cross-linking
AUC = molecular target: the molecule itself; experiment: AUC
N-CEA F29R = molecular target: B3; experiment: SPR
N-CEA S32N = molecular target: B11; experiment: SPR
N-CEA V39A = molecular target: T1, N-CEA V39A (human, UniProt P06731 34-144, V39A); experiment: SPR
T1 sequence: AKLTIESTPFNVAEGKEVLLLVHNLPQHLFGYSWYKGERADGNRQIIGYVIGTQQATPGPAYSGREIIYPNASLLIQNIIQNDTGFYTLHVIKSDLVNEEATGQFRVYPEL

N-CEA Q44R = molecular target: B13; experiment: SPR
[3] = molecular target: B8; experiment: SPR; remark: listed apart in the source
[4] = molecular target: B8; experiment: SPR; remark: listed apart in the source

DraE monomer (DraE-dsc) (natural protein)
518/555 absorbance ratio of TMR-labeled N-CEA after dilution with DraE [1]: 0.48

B1: N-CEA L95C (domain or fragment)
chain: AKLTIESTPFNVAEGKEVLLLVHNLPQHLFGYSWYKGERVDGNRQIIGYVIGTQQATPGPAYSGREIIYPNASLLIQNIIQNDTGFYTLHVIKSDCVNEEATGQFRVYPEL
stoichiometry N (SEC): 2

B2: N-CEA H89Q (domain or fragment)
chain: AKLTIESTPFNVAEGKEVLLLVHNLPQHLFGYSWYKGERVDGNRQIIGYVIGTQQATPGPAYSGREIIYPNASLLIQNIIQNDTGFYTLQVIKSDLVNEEATGQFRVYPEL
stoichiometry N (SEC): 2

B3
Kd [2]: ~200 µM

B4: N-CEA V39C mutant (domain or fragment)
chain: AKLTIESTPFNVAEGKEVLLLVHNLPQHLFGYSWYKGERCDGNRQIIGYVIGTQQATPGPAYSGREIIYPNASLLIQNIIQNDTGFYTLHVIKSDLVNEEATGQFRVYPEL
stoichiometry N (cross-linking): 2

B5: N-CEA Q76A (domain or fragment)
chain: AKLTIESTPFNVAEGKEVLLLVHNLPQHLFGYSWYKGERVDGNRQIIGYVIGTQQATPGPAYSGREIIYPNASLLIANIIQNDTGFYTLHVIKSDLVNEEATGQFRVYPEL
stoichiometry N (SEC): 2

B6: N-CEA F29I (domain or fragment)
chain: AKLTIESTPFNVAEGKEVLLLVHNLPQHLIGYSWYKGERVDGNRQIIGYVIGTQQATPGPAYSGREIIYPNASLLIQNIIQNDTGFYTLHVIKSDLVNEEATGQFRVYPEL
stoichiometry N (SEC): 2

B7: N-CEA L74A (domain or fragment)
chain: AKLTIESTPFNVAEGKEVLLLVHNLPQHLFGYSWYKGERVDGNRQIIGYVIGTQQATPGPAYSGREIIYPNASLAIQNIIQNDTGFYTLHVIKSDLVNEEATGQFRVYPEL
stoichiometry N (SEC): 2

B8
Kd (AUC): 0.8 µM
stoichiometry N (SEC): 2

B9: N-CEA D40A (domain or fragment)
chain: AKLTIESTPFNVAEGKEVLLLVHNLPQHLFGYSWYKGERVAGNRQIIGYVIGTQQATPGPAYSGREIIYPNASLLIQNIIQNDTGFYTLHVIKSDLVNEEATGQFRVYPEL
stoichiometry N (SEC): 2

B10: N-CEA L95A (domain or fragment)
chain: AKLTIESTPFNVAEGKEVLLLVHNLPQHLFGYSWYKGERVDGNRQIIGYVIGTQQATPGPAYSGREIIYPNASLLIQNIIQNDTGFYTLHVIKSDAVNEEATGQFRVYPEL
stoichiometry N (SEC): 2

B11
Kd [2]: ~200 µM

B12: N-CEA I91A (domain or fragment)
chain: AKLTIESTPFNVAEGKEVLLLVHNLPQHLFGYSWYKGERVDGNRQIIGYVIGTQQATPGPAYSGREIIYPNASLLIQNIIQNDTGFYTLHVAKSDLVNEEATGQFRVYPEL
Kd [2]: 55 ± 6 µM

B13
Kd [2]: ~130 µM

B14: N-terminal domain of CEACAM1 (N-CEACAM1) (domain or fragment)
chain: QLTTESMPFNVAEGKEVLLLVHNLPQQLFGYSWYKGERVDGNRQIVGYAIGTQQATPGPANSGRETIYPNASLLIQNVTQNDTGFYTLQVIKSDLVNEEATGQFHVYP
Kd (N-CEA F29R): ~100 µM
Kd (N-CEA S32N): ~100 µM
Kd (N-CEA V39A): ~100 µM
Kd (N-CEA Q44R): 72 ± 9 µM

B15: N-terminal domain of CEACAM6 (N-CEACAM6) (domain or fragment)
chain: KLTIESTPFNVAEGKEVLLLAHNLPQNRIGYSWYKGERVDGNSLIVGYVIGTQQATPGPAYSGRETIYPNASLLIQNVTQNDTGFYTLQVIKSDLVNEEATGQFHVYP
Kd [3]: ~100 µM
Kd (N-CEA F29R): ~200 µM
Kd (N-CEA S32N): ~200 µM
Kd (N-CEA Q44R): 28 ± 3 µM
Kd [4]: 65 ± 7 µM
